The values below come from patent publication US6794491B1, “Polypeptides, their production and use” (Takeda Chemical Industries, Ltd., priority 1995, dated 2004).

“Also recorded” adds a separate entry of the source. Where no end group is shown, it is not given here.

Assay [1] addresses T1, UHR-1 expressed in CHO cells (CHO-UHR1) (Rattus norvegicus, UniProt Q64121, L289V).
T1 construct: expressed in transfected cells; host or cells: CHO dhfr- cells transfected with pAKKO-UHR-1
T1 sequence (Q64121 1-370 L289V): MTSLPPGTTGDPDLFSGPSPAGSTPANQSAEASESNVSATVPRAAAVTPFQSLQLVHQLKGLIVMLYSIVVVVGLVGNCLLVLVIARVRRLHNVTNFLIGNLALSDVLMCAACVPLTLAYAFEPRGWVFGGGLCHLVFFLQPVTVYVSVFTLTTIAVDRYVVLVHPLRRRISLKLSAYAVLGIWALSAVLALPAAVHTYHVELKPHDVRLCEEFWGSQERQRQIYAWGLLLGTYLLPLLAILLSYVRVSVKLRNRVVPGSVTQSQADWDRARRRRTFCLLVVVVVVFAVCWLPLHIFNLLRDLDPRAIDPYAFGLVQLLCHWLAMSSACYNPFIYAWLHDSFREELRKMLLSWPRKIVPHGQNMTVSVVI
As to the kind of experiment: release of arachidonic acid metabolites from CHO-UHR1 cells. In kind it is cell-based. The conditions noted are these: CHO cells expressing rat homolog UHR1; duplicate. Here is the method:
(§1) The full-length receptor protein-expressed CHO cells and mock CHO cells were seeded in a 24-well plate, 0.5×10^5 cells/well, and cultured for 24 hours. Then, [^3H] arachidonic acid was added at a final concentration of 0.25 μCi/well. Sixteen (16) hours after addition of [^3H] arachidonic acid, the cells were rinsed with 0.05% BSA-HBSS and the above-mentioned crude peptide fraction was added, 400 μl/well. The mixture was incubated at 37° C. for 30 minutes and a 300 μl portion of the reaction mixture (400 μl) was added to 4 ml of a scintillator and the amount of [^3H] arachidonic acid metabolite released into the reaction mixture was determined with a scintillation counter.
Same as described in Example 11, the release activity of arachidonic acid metabolite was measured on CHO-19P2-9 and CHO-UHR1 and mock CHO.

Assay [2] has as its target T2, full-length receptor protein expressed CHO cells (CHO-19P2); human pituitary receptor protein (hGR3) (Homo sapiens, UniProt P49683).
T2 construct: to construct a full-length receptor protein expression plasmid pAKKO-19P2; expressed in transfected cells; host or cells: CHO dhfr- cells transfected with pAKKO-19P2 (CHO-19P2; clone CHO-19P2-9)
T2 sequence (P49683 1-370): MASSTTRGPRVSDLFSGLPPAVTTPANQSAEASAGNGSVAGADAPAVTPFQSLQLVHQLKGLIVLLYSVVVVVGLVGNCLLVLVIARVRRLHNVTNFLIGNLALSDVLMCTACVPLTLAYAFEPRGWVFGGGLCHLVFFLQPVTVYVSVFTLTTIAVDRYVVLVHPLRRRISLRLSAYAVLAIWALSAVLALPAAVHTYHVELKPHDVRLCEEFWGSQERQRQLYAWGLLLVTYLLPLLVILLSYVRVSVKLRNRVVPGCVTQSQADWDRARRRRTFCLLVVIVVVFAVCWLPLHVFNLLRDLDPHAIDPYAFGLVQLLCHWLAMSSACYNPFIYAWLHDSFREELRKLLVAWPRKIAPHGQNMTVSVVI
As to the kind of experiment: release of arachidonic acid metabolites from CHO-19P2 cells. It counts as cell-based. The conditions noted are these: amount of [3H]arachidonic acid metabolites, 10^−12 M-10^−6 M in 0.05% BSA-HBSS. Here is the method: as §1
The activity of the peptide (19P2-L31) synthesized in Example 21 to specifically release arachidonic acid metabolites from CHO-19P2 cells was assayed in the same manner as Example 11. The synthetic peptide was dissolved in degassed dH20 at a concentration of 10^−3M and diluted with 0.05% BSA-HBSS and the activity to promote release of arachidonic acid metabolites from CHO-19P2 cells at each concentration was assayed using the amount of [^3H]arachidonic acid metabolites as the indicator.
The activity of the synthetic equivalent (19P2-L20) of natural peptide P-2 as synthesized in Example 23 to specifically promote release of arachidonic acid metabolites from CHO-19P2 cells was determined as in Example 11. Thus, the synthetic peptide was dissolved in degassed dH2O at a final concentration of 10^−3M and this solution was serially diluted with 0.05% BAS-HBSS. The activity to specifically promote release of arachidonic acid metabolites from CHO-19P2 cells at each concentration was assayed using the amount of [^3H]arachidonic acid metabolites as the indicator.

The nature of assay [3]: plasma growth hormone (GH) level in freely moving rats, GHRH-induced. In kind it is in vivo, male Wistar rats. The conditions noted are these: 50 nmol into the third ventricle, 5 μg/kg GHRH 10 min later. Here is the method: Mature male Wistar rats were anesthetized with pentobarbital 50 mg/kg i.p. and, as in Example 41, a stainless-steel guide cannula AG-12 (0.4 mm in. dia., 0.5 mm out. dia., EICOM) was implanted in position with its tip situated in the upper part of the third ventricle. After the operation the rats were housed in individual cages and kept for at least 3 days for recuperation and, then, a cannula (30 cm long, 0.5 mm in. dia., 0.9 mm out. dia., Natsume Seisakusho) filled with heparin (200 U/ml)-containing saline was inserted into the right atrium from the right jugular vein under pentobarbital anesthesia. The rats were maintained overnight for complete arousal from anesthesia and then transferred to transparent acrylic cages (30 cm×30 cm×35 cm). A 1 ml tuberculin syringe with a 24-G needle (both by Termo) was connected to the cannula inserted in the atrium and 300 μl of blood was drawn. To prevent clotting, the syringe was filled with 20 μl of saline containing 200 U/ml of heparin beforehand. […] The concentrations of GH in the plasma were determined by radioimmunoassay.
The results were expressed as a mean±S.E.M. To test for significant difference between the group treated with 19P2-L31 dissolved in PBS and the control group treated with PBS alone, Student's t-test was used. […]

Regarding “Ser-Arg-Ala-His-Gln-His-Ser-Met-Glu-Ile-Arg-Thr-Pro-Asp-Ile-Asn-Pro-Ala-Trp-Tyr-Ala-Gly-Arg-Gly-Ile-Arg-Pro-Val-Gly-Arg-Phe-NH2 (SRAHQHSMEIRTPDINPAWYAGRGIRPVGRF-NH2) [19P2-L31, synthetic ligand polypeptide]”, in assay [1], the “release activity of arachidonic acid metabolite” value is recorded as “detected same as CHO-19P2-9”. In assay [2], the “arachidonic acid metabolite-releasing activity” value is “concentration-dependent arachidonic acid metabolite-releasing activity was detected over the range of 10^−12M-10^−6M; also recorded: found in a concentration-dependent manner”. In addition, in assay [3], the “GHRH-induced elevation of plasma GH” value is “significantly inhibited”.
